Laboratory results as given in patent US20200407397A1 (published 2020).

Tests used:
recombinant LDHA [1] = molecular target: T1, recombinant LDHA (human, UniProt P00338 1-332)
recombinant LDHA [2] = molecular target: T1, recombinant LDHA; remark: listed apart in the source

- IC50 (recombinant LDHA [1]): 82.2 nM
- Ki (recombinant LDHA [2]): 57.4 nM
Binder: AQRMNTAFTP [FLCN-10 peptide]
